Patent US20250326792A1, “A FORMULATION FOR TREATMENT OF PIGMENTARY DISORDERS” (priority 2022, published 2025)
PHPP = 3-Phenylpyrazolo[3,4-d]pyrimidine (N-terminal cap)

Columns and labels:
[1] = Stability of IS103 API, long term (Condition 2, −20±5° C.); assay type: physicochemical; conditions: for Internal change in attributes: Appearance / Internal change in attributes: Clarity of solution / Internal change in attributes: Color / Internal change in attributes: Color of solution / Internal change in attributes: Odor / API calculated on the anhydrous basis / Appearance white to off white amorphous powder / Related substances (By HPLC) Any Max Impurity / Related substances (By HPLC) Total Impurity / Solubility Sparingly soluble in water / Water Content (By Karl Fischer-Titrator): −20±5° C.
Experimental: The purpose of stability testing is to provide evidence on how the quality of a drug substance or drug product varies with time under the influence of a variety of environmental factors such as temperature, humidity, etc. and to establish a re-test period for the drug substance or a shelf life for the drug product and recommended storage conditions. The study was conducted according to the WHO and schedule-Y guidelines.
The IS103 API is a lyophilized white fluffy powder, and it was filled at sterile condition in glass injection vial which has airlock-rubber capping. This container closure system is same as or simulates the packaging proposed for storage and distribution.
The following test attributes have been selected according to the above said guidelines: • appearance; odour; colour; colour of solution (when IS103 API is soluble in solvent); clarity of solution; degradation and assessment of container closure system.
Testing frequency for long term studies have been designed as per schedule Y. The long-term stability studies have been conducted on 1, 3, 6, 9, 12, 18, 24 and 36 months.
The studies were conducted under appropriate storage conditions (with appropriate tolerances) that test IS103 API thermal stability and its sensitivity to moisture. The IS103 API is intended for storage for 36 months. Accordingly, long term stability studies were done for 36 months. The details of the storage conditions have been furnished hereunder.

NHEM cells = experiment: Cell viability (XTT assay) in NHEM cells; assay type: cell-based, Human; conditions: 1000 μg/ml for about 48 hours
Experimental: Culture and maintenance of cell lines: B16F10 cells were cultured in RPMI containing 10% fetal bovine serum, 100 units per millilitre (U/mL) penicillin, 0.1 mg/mL streptomycin, and 0.25 microgram per millilitre (μg/mL) amphotericin B at 37 degrees Celsius in a humidified 95% air/5% CO2 incubator. Drug treatment was done 24 hours after seeding. Cells were harvested 48 hours later and melanin content and tyrosinase activity determined in triplicate. […] […]
B16F10 and NHEM cells were sub-cultured into 96-well culture plates at a density of 1×10^4 cells/well in 100 μL medium and after about 24 hours of incubation, the medium was discarded and replaced with 100 μL of a suitable medium (RPMI for B16F10 and DMEM for NHEM with 1% FBS) for starvation and then treated in the presence or absence of various concentrations of test compound and positive controls (IBMX and α-MSH). […] At the end of the incubation, about 50 μL of XTT test solution prepared by mixing about 5 mL of XTT-labeling reagent and about 100 μL of electron coupling reagent is added to each well and after about 4 hours of incubation at 37° C. and a about 5% CO2 incubator, the absorbance was measured on an ELISA reader at a test wavelength of 490 nm.

In the case of “PHPP-Tyr-Arg-Ser-Arg-Lys-Tyr-Ser-Ser-Trp-Tyr-NH2 ({PHPP}-YRSRKYSSWY-NH2) [IS103]”, the “found to be stable for” value ([1]; long term stability condition (of −20±5° C.)) is reported as 36 months, the “Internal change in attributes: Appearance” value (“Internal change … Appearance” below) ([1]; 1st month) is reported as “No change” and the “Internal change in attributes: Clarity of solution” value ([1]; 1st month) is reported as “No change”. For the same substance, the “Internal change in attributes: Color” value ([1]; 1st month) was “No change”, the “Internal change in attributes: Color of solution” value ([1]; 1st month) was “No change” and the “Internal change in attributes: Odor” value ([1]; 1st month) was “No change”. The “API calculated on the anhydrous basis” value ([1]; 3 M) was 99.51%, the “Appearance white to off white amorphous powder” value (“Appearance white” below) ([1]; 3 M) was “White” and the “Related substances (By HPLC) Any Max Impurity” value ([1]; 3 M) was 0.22%. For the same substance, the “Related substances (By HPLC) Total Impurity” value ([1]; 3 M) was 0.37%, the “Solubility Sparingly soluble in water” value ([1]; 3 M) was “Complies” and the “Water Content (By Karl Fischer-Titrator)” value ([1]; 3 M) was 4.06% w/w. For the same substance, the “Internal change … Appearance” value ([1]; 3rd month) was “No change”, the “Internal change in attributes: Clarity of solution” value ([1]; 3rd month) was “No change” and the “Internal change in attributes: Color” value ([1]; 3rd month) was “No change”. For the same substance, the “Internal change in attributes: Color of solution” value ([1]; 3rd month) was “No change”, the “Internal change in attributes: Odor” value ([1]; 3rd month) was “No change” and the “API calculated on the anhydrous basis” value ([1]; 12 M) was 99.11%. The “Appearance white” value ([1]; 12 M) was “White”, the “Related substances (By HPLC) Any Max Impurity” value ([1]; 12 M) was 0.36% and the “Related substances (By HPLC) Total Impurity” value ([1]; 12 M) was 0.44%. For the same substance, the “Solubility Sparingly soluble in water” value ([1]; 12 M) was “Complies”, the “Water Content (By Karl Fischer-Titrator)” value ([1]; 12 M) was 4.45% w/w and the “Internal change … Appearance” value ([1]; 12th month) was “No change”. The “Internal change in attributes: Clarity of solution” value ([1]; 12th month) was “No change”, the “Internal change in attributes: Color” value ([1]; 12th month) was “No change” and the “Internal change in attributes: Color of solution” value ([1]; 12th month) was “No change”. For the same substance, the “Internal change in attributes: Odor” value ([1]; 12th month) was “No change”, the “API calculated on the anhydrous basis” value ([1]; 18 M) was 99.03% and the “Appearance white” value ([1]; 18 M) was “White”. The “Related substances (By HPLC) Any Max Impurity” value ([1]; 18 M) was 0.62%, the “Related substances (By HPLC) Total Impurity” value ([1]; 18 M) was 0.62% and the “Solubility Sparingly soluble in water” value ([1]; 18 M) was “Complies”. For the same substance, the “Water Content (By Karl Fischer-Titrator)” value ([1]; 18 M) was 4.54% w/w, the “Internal change … Appearance” value ([1]; 18th month) was “No change” and the “Internal change in attributes: Clarity of solution” value ([1]; 18th month) was “No change”. The “Internal change in attributes: Color” value ([1]; 18th month) was “No change”, the “Internal change in attributes: Color of solution” value ([1]; 18th month) was “No change” and the “Internal change in attributes: Odor” value ([1]; 18th month) was “No change”. The “API calculated on the anhydrous basis” value ([1]; 24 M) was 98.95%, the “Appearance white” value ([1]; 24 M) was “White” and the “Related substances (By HPLC) Any Max Impurity” value ([1]; 24 M) was 0.60%. For the same substance, the “Related substances (By HPLC) Total Impurity” value ([1]; 24 M) was 0.82%, the “Solubility Sparingly soluble in water” value ([1]; 24 M) was “Complies” and the “Water Content (By Karl Fischer-Titrator)” value ([1]; 24 M) was 4.61% w/w. For the same substance, the “Internal change … Appearance” value ([1]; 24th month) was “No change”, the “Internal change in attributes: Clarity of solution” value ([1]; 24th month) was “No change” and the “Internal change in attributes: Color” value ([1]; 24th month) was “No change”. The “Internal change in attributes: Color of solution” value ([1]; 24th month) was “No change”, the “Internal change in attributes: Odor” value ([1]; 24th month) was “No change” and the “API calculated on the anhydrous basis” value ([1]; 36 M) was 98.73%. The “Appearance white” value ([1]; 36 M) was “White”, the “Related substances (By HPLC) Any Max Impurity” value ([1]; 36 M) was 0.84% and the “Related substances (By HPLC) Total Impurity” value ([1]; 36 M) was 0.97%. The “Solubility Sparingly soluble in water” value ([1]; 36 M) was “Complies”, the “Water Content (By Karl Fischer-Titrator)” value ([1]; 36 M) was 4.56% w/w and the “Internal change … Appearance” value ([1]; 36th month) was “No change”. The “Internal change in attributes: Clarity of solution” value ([1]; 36th month) was “No change”, the “Internal change in attributes: Color” value ([1]; 36th month) was “No change” and the “Internal change in attributes: Color of solution” value ([1]; 36th month) was “No change”. The “Internal change in attributes: Odor” value ([1]; 36th month) was “No change”, the “API calculated on the anhydrous basis” value ([1]; Initial) was 99.73% and the “Appearance white” value ([1]; Initial) was “White”. The “Related substances (By HPLC) Any Max Impurity” value ([1]; Initial) was 0.14%, the “Related substances (By HPLC) Total Impurity” value ([1]; Initial) was 0.32% and the “Solubility Sparingly soluble in water” value ([1]; Initial) was “Complies”. For the same substance, the “Water Content (By Karl Fischer-Titrator)” value ([1]; Initial) was 3.91% w/w and the “effect on cell viability” value (NHEM cells) was “did not exert any significant effect on cell viability”.
